Experimental data taken from patent publication US20150320848A1.
Each block holds one binder with its values, some of them ahead of it.

Assays:
Assay in all cases: REVEAL MHC-peptide binding assay; score relative to positive control
HLA-DR5 = target: HLA-DR5
HLA-DR4 = target: HLA-DR4
HLA-DR1 = target: HLA-DR1
HLA-DR2 = target: HLA-DR2
HLA-DR7 = target: HLA-DR7

binding score (% compared to the positive control) (HLA-DR5): > 15%
binding score (% compared to the positive control) (HLA-DR4): > 15%
B1: ERGIC1-001 (peptide)
peptide: FEGQFSINKVPGNFHVS

binding score (% compared to the positive control) (HLA-DR1): > 15%
binding score (% compared to the positive control) (HLA-DR2): > 15%
binding score (% compared to the positive control) (HLA-DR7): > 15%
binding score (% compared to the positive control) (HLA-DR4): > 15%
B2: GALNT7-001 (peptide)
peptide: GNQLFRINEANQLMQ
